Laboratory results taken from patent US20180044374A1.
Values joined by “and” are separate entries in the source; they are usually repeats but may differ in a detail not shown here. Identical values can stand only once.

Tests used:
[1] = target: human polyclonal IgG (Gammanorm) (human); assay: dynamic binding capacity; matrix A40, ligand 6.1 mg/ml
[2] = target: human polyclonal IgG (Gammanorm) (human); assay: dynamic binding capacity; matrix A38, ligand 11.3 mg/ml
[3] = target: human polyclonal IgG (Gammanorm) (human); assay: dynamic binding capacity; matrix A42, ligand […]
[4] = target: human polyclonal IgG (Gammanorm) (human); assay: dynamic binding capacity; matrix A63a, ligand 14.0 mg/ml
[5] = target: human polyclonal IgG (Gammanorm) (human); assay: dynamic binding capacity; matrix A62a, ligand 7.5 mg/ml
[6] = target: human polyclonal IgG (Gammanorm) (human); assay: dynamic binding capacity; matrix A32, ligand […]
[7] = target: human polyclonal IgG (Gammanorm) (human); assay: dynamic binding capacity; matrix H40, ligand […]
[8] = target: human polyclonal IgG (Gammanorm) (human); assay: dynamic binding capacity; matrix A32, ligand 13.3 mg/ml
[9] = target: human polyclonal IgG (Gammanorm) (human); assay: dynamic binding capacity; matrix A20, ligand 10.6 mg/ml
[10] = target: human polyclonal IgG (Gammanorm) (human); assay: dynamic binding capacity; matrix A28, ligand 11.9 mg/ml
[11] = target: human polyclonal IgG (Gammanorm) (human); assay: dynamic binding capacity; matrix B5, ligand 6.3 mg/ml
[12] = target: human polyclonal IgG (Gammanorm) (human); assay: dynamic binding capacity; matrix A27, ligand […]
[13] = target: human polyclonal IgG (Gammanorm) (human); assay: dynamic binding capacity; ligand 12 mg/ml, before 1 M NaOH
[14] = target: human polyclonal IgG (Gammanorm) (human); assay: dynamic binding capacity; matrix A65a, ligand 6.1 mg/ml
[15] = target: human polyclonal IgG (Gammanorm) (human); assay: dynamic binding capacity; matrix A39, ligand 6.96 mg/ml
[16] = target: human polyclonal IgG (Gammanorm) (human); assay: dynamic binding capacity; matrix C3, ligand 9.0 mg/ml
[17] = target: human polyclonal IgG (Gammanorm) (human); assay: dynamic binding capacity; matrix A18, ligand 8.2 mg/ml
[18] = target: human polyclonal IgG (Gammanorm) (human); assay: dynamic binding capacity; matrix A40, ligand 13.2 mg/ml
[19] = target: human polyclonal IgG (Gammanorm) (human); assay: dynamic binding capacity; matrix A62a, ligand 6.6 mg/ml
[20] = target: human polyclonal IgG (Gammanorm) (human); assay: dynamic binding capacity; ligand 13 mg/ml, before 1 M NaOH
[21] = target: human polyclonal IgG (Gammanorm) (human); assay: dynamic binding capacity; matrix A65a, ligand 6.6 mg/ml
[22] = target: human polyclonal IgG (Gammanorm) (human); assay: dynamic binding capacity; matrix A43, ligand 10.51 mg/ml
[23] = target: human polyclonal IgG (Gammanorm) (human); assay: dynamic binding capacity; matrix C1, ligand 10.8 mg/ml
[24] = target: human polyclonal IgG (Gammanorm) (human); assay: dynamic binding capacity; matrix A42, ligand 6.72 mg/ml
[25] = target: human polyclonal IgG (Gammanorm) (human); assay: dynamic binding capacity; matrix A62a, ligand 6.4 mg/ml
[26] = target: human polyclonal IgG (Gammanorm) (human); assay: dynamic binding capacity; matrix C1, ligand […]
[27] = target: human polyclonal IgG (Gammanorm) (human); assay: dynamic binding capacity; matrix A62a, ligand 14.8 mg/ml
[28] = target: human polyclonal IgG (Gammanorm) (human); assay: dynamic binding capacity; matrix A33, ligand 7.3 mg/ml
[29] = target: human polyclonal IgG (Gammanorm) (human); assay: dynamic binding capacity; matrix A43, ligand 6.99 mg/ml
[30] = target: human polyclonal IgG (Gammanorm) (human); assay: dynamic binding capacity; matrix C2, ligand […]
[31] = target: human polyclonal IgG (Gammanorm) (human); assay: dynamic binding capacity; matrix A40, ligand 13.15 mg/ml
[32] = target: human polyclonal IgG (Gammanorm) (human); assay: dynamic binding capacity; matrix A65a, ligand 13.1 mg/ml
[33] = target: human polyclonal IgG (Gammanorm) (human); assay: dynamic binding capacity; matrix A28, ligand 7.9 mg/ml
[34] = target: human polyclonal IgG (Gammanorm) (human); assay: dynamic binding capacity; matrix A62b, ligand […]; conditions: ligand content 5.2 mg/ml
[35] = target: human polyclonal IgG (Gammanorm) (human); assay: dynamic binding capacity; matrix A41, ligand 13.0 mg/ml
[36] = target: human polyclonal IgG (Gammanorm) (human); assay: dynamic binding capacity; matrix A41, ligand 8.83 mg/ml
[37] = target: human polyclonal IgG (Gammanorm) (human); assay: dynamic binding capacity; matrix I1, ligand 6.1 mg/ml
[38] = target: human polyclonal IgG (Gammanorm) (human); assay: dynamic binding capacity; matrix A39, ligand 10.5 mg/ml

“Zvar(Q9A, N11E, Q40V, A42K, N43A, L44I)4 (designed binder)” showed a Qb10% 2.4 min [1] of 49 mg/mL, a Qb10% 6 min [1] of 59 mg/mL and a Qb10% 2.4 min [2] of 48 mg/mL. The Qb10% 6 min [2] was 73 mg/mL, the Qb10% 2.4 min [3] was 32.2 mg/mL and the Qb10% 6 min [3] was 57.8 mg/mL. The Qb10% 2.4 min [4] was 48 mg/mL, the Qb10% 6 min [4] was 56 mg/mL and the Qb10% 2.4 min [5] was 47 mg/mL. For the same substance, the Qb10% 6 min [5] was 56 mg/mL, the Qb10% 2.4 min [6] was 40 mg/mL and the Qb10% 6 min [6] was 57 mg/mL. It also gave a Qb10% 2.4 min [7] of 47 mg/mL, a Qb10% 6 min [7] of 52 mg/mL and a Qb10% 2.4 min [8] of 37 mg/mL. For the same substance, the Qb10% 6 min [8] was 66 mg/mL, the Qb10% 2.4 min [9] was 50.7 mg/mL and 51 mg/mL and the Qb10% 6 min [9] was 70.1 mg/mL and 70 mg/mL. The Qb10% 2.4 min [10] was 39.9 mg/mL and 40 mg/mL, the Qb10% 6 min [10] was 63.8 mg/mL and 64 mg/mL and the Qb10% 2.4 min [11] was 32 mg/mL. For the same substance, the Qb10% 6 min [11] was 38 mg/mL, the Qb10% 2.4 min [12] was 24.8 mg/mL and the Qb10% 6 min [12] was 55.6 mg/mL. For the same substance, the Qb10%, 6 min, before incubation [13] was 78 mg/mL, the Qb10% 2.4 min [14] was 40 mg/mL and the Qb10% 6 min [14] was 44 mg/mL. The Qb10% 2.4 min [15] was 41.9 mg/mL, the Qb10% 6 min [15] was 54.7 mg/mL and the Qb10% 2.4 min [16] was 49 mg/mL. It also gave a Qb10% 6 min [16] of 62 mg/mL, a Qb10% 2.4 min [17] of 52 mg/mL and a Qb10% 6 min [17] of 59 mg/mL. For the same substance, the Qb10% 2.4 min [18] was 57 mg/mL, the Qb10% 6 min [18] was 71 mg/mL and the Qb10% 2.4 min [19] was 41 mg/mL. It also gave a Qb10% 6 min [19] of 46 mg/mL, a Qb10%, 6 min, before incubation [20] of 79 mg/mL and a Qb10% 2.4 min [21] of 42 mg/mL. For the same substance, the Qb10% 6 min [21] was 47 mg/mL, the Qb10% 2.4 min [22] was 31.8 mg/mL and the Qb10% 6 min [22] was 58 mg/mL. For the same substance, the Qb10% 2.4 min [23] was 43 mg/mL, the Qb10% 6 min [23] was 60 mg/mL and the Qb10% 2.4 min [24] was 33.6 mg/mL. The Qb10% 6 min [24] was 50 mg/mL, the Qb10% 2.4 min [25] was 43 mg/mL and the Qb10% 6 min [25] was 45 mg/mL. The Qb10% 2.4 min [26] was 38 mg/mL, the Qb10% 6 min [26] was 47 mg/mL and the Qb10% 2.4 min [27] was 55 mg/mL. For the same substance, the Qb10% 6 min [27] was 62 mg/mL, the Qb10% 2.4 min [28] was 49 mg/mL and the Qb10% 6 min [28] was 56 mg/mL. The Qb10% 2.4 min [29] was 33.4 mg/mL, the Qb10% 6 min [29] was 49.8 mg/mL and the Qb10% 2.4 min [30] was 39 mg/mL. It also gave a Qb10% 6 min [30] of 46 mg/mL, a Qb10% 2.4 min [31] of 56.9 mg/mL and a Qb10% 6 min [31] of 71.1 mg/mL. The Qb10% 2.4 min [32] was 56 mg/mL, the Qb10% 6 min [32] was 64 mg/mL and the Qb10% 2.4 min [33] was 42.4 mg/mL and 42 mg/mL. For the same substance, the Qb10% 6 min [33] was 58.2 mg/mL and 58 mg/mL, the Qb10% 2.4 min [34] was 40 mg/mL and the Qb10% 2.4 min [35] was 35 mg/mL. For the same substance, the Qb10% 6 min [35] was 62.2 mg/mL, the Qb10% 2.4 min [36] was 38.5 mg/mL and 37.8 mg/mL and 35.1 mg/mL and the Qb10% 6 min [36] was 56.8 mg/mL and 58.6 mg/mL and 57.2 mg/mL. It also gave a Qb10% 2.4 min [37] of 45 mg/mL, a Qb10% 6 min [37] of 51 mg/mL and a Qb10% 2.4 min [38] of 44 mg/mL. It also gave a Qb10% 6 min [38] of 65 mg/mL.
